# Data as given in patent US20140050720A1, “ULTRALONG COMPLEMENTARITY DETERMINING REGIONS AND USES THEREOF” (THE SCRIPPS RESEARCH INSTITUTE, priority 2012, published 2014).
# T1: CXCR1-U2OS (Homo sapiens, UniProt P25024)
# T1 construct: host or cells: U2OS-derived CXCR1 cell line, purchased
# T1 sequence (P25024 1-350): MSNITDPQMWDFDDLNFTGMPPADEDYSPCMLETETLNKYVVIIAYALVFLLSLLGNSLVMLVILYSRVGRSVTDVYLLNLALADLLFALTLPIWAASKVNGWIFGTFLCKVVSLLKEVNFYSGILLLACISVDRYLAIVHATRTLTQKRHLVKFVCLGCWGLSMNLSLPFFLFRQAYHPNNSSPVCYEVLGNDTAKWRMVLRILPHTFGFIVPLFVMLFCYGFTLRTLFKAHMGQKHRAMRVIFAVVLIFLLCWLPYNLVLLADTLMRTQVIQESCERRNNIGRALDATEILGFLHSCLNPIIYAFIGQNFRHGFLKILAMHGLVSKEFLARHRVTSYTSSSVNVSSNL
# Legend:
# Mouse NFS-60 cells = experiment: Proliferation assay on mouse NFS-60 cells (AlamarBlue); format: cell-based; conditions: for F.I. (AlamarBlue fluorescence at 595 nm, cell viability): 72 hours
# Experimental: Mouse NFS-60 cells were obtained from American Type Culture Collection (ATCC), VA, and cultured in RPMI-1640 medium supplemented with 10% fetal bovine serum (FBS), 0.05 mM 2-mercapoethanol and 62 ng/ml human macrophage colony stimulating factor (M-CSF). For proliferation assay, mouse NFS-60 cells were washed three times with RPMI-1640 medium and resuspended in RPMI-1640 medium with 10% FBS and 0.05 mM 2-mercapoethanol at a density of 1.5×10^5 cells/ml. In 96-well plates, 100 μl of cell suspension was added into each well, followed by the addition of varied concentrations of bGCSF, BLV1H12 antibody, and the immunoglobulin constructs described herein, Equal volume of PBS buffer was added into the control wells. The plates were incubated at 37° C. in a 5% CO2 incubator for 72 hours. Cells were then treated with AlamarBlue (Invitrogen) ( 1/10 volume of cell suspension) for 4 hours at 37° C. Fluorescence at 595 nm for each well was read to indicate the cell viability.
# Parental U2OS = experiment: Flow cytometry binding to parental cells; conditions: cell culture supernatant containing expressed IgG, anti-Human Fc detection
# Experimental: (§1) Briefly, a cell line expressing functionally validated CXCR1 derived from U2OS cells was obtained from DiscoveRx and cultured per manufacturer's instructions (Cat#93-0226C3, DiscoveRx Corporation, Freemont, Calif.). The parental cell line U20S was obtained from ATCC and cultured under the same conditions as the CXCR1 cells. Cell culture supernatants from Example 2 above were then tested for binding to cells by flow cytometry. The adherent U20S or CXCR1-U20S cells were dissociated with Accutase (Innovative Cell Technologies, Inc., San Diego, Calif.), neutralized with an equal volume of media containing 10% serum, centrifuged at 1000 g, and resuspended in PBS with 2% BSA. Next, cells were dispensed into microtiter plates to achieve between 30,000 to 300,000 cells per well, centrifuged again, and resuspended in cell culture supernatant containing expressed IgG, or a dilution of IgG-containing cell culture supernatant. A fluorescent-conjugated anti-Human Fc antibody was used to detect binding of the expressedBLV1H12-IL8 fusion proteins to cells.
# CXCR1-U2OS = molecular target: T1, CXCR1-U2OS; experiment: Flow cytometry binding to CXCR1 expressing cells; conditions: CXCR1-U2OS cells, cell culture supernatant containing expressed IgG, anti-Human Fc detection
# Experimental: as §1
molecule,measurement,setting,value
"Ab: bovine BLV1H12 antibody with ultralong CDR3, no inserted polypeptide; heavy chain SEQ ID NO: 24, light chain SEQ ID NO: 23 (antibody) heavy: QVQLRESGPSLVKPSQTLSLTCTASGFSLSDKAVGWVRQAPGKALEWLGSIDTGGNTGYNPGLKSRLSITKDNSKSQVSLSVSSVTTEDSATYYCTSVHQETKKYQSCPDGYRERSDCSNRPACGTSDCCRVSVFGNCLTTLPVSYSYTYNYEWHVDVWGQGLLVTVSS light: QAVLNQPSSVSGSLGQRVSITCSGSSSNVGNGYVSWYQLIPGSAPRTLIYGDTSRASGVPDRFSGSRSGNTATLTISSLQAEDEADYFCASAEDSSSNAVFGSGTTLTVLGQPKSPPSVTLFPPSTEELNGNKATLVCLISDFYPGSVTVVWKADGSTITRNVETTRASKQSNSKYAASSYLSLTSSDWKSKGSYSCEVTHEGSTVTKTVKPSECS",proliferative activity on mouse NFS-60 cells,Mouse NFS-60 cells,lack of proliferative activity
same,"F.I. (AlamarBlue fluorescence at 595 nm, cell viability)",Mouse NFS-60 cells; 0.45725 ng/mL,1040
same,"F.I. (AlamarBlue fluorescence at 595 nm, cell viability)",Mouse NFS-60 cells; 1.37174 ng/mL,1010
same,"F.I. (AlamarBlue fluorescence at 595 nm, cell viability)",Mouse NFS-60 cells; 4.11523 ng/mL,983.3
same,"F.I. (AlamarBlue fluorescence at 595 nm, cell viability)",Mouse NFS-60 cells; 12.34568 ng/mL,971.8
same,"F.I. (AlamarBlue fluorescence at 595 nm, cell viability)",Mouse NFS-60 cells; 37.03704 ng/mL,960.5
same,"F.I. (AlamarBlue fluorescence at 595 nm, cell viability)",Mouse NFS-60 cells; 111.11111 ng/mL,991.83
same,"F.I. (AlamarBlue fluorescence at 595 nm, cell viability)",Mouse NFS-60 cells; 333.33333 ng/mL,964.798
same,Median Arbitrary Fluorescence Units (AFU),Parental U2OS,4 AFU
same,Median Arbitrary Fluorescence Units (AFU),CXCR1-U2OS,4 AFU
